Measurements from the supplement of paper PMC11865577.

How the values were obtained:
Assay in all cases: pull-down binding Z-score (relative to library population); higher = stronger binding
[1] = test system: TO-N3-2 (biotin conjugate); conditions: RNA library: Library-2
Procedure, shortened: (§1)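 A heat-folded, dye-end-labelled (Cy5 or Cy3) RNA library (1 μg, phosphate/NaCl/KCl buffer) was exposed for 60 min at 25 °C to streptavidin beads holding 100 pmol of biotin-conjugated small molecule. RNA retained on the beads was eluted in hot SDS and hybridised to a DNA barcode microarray for 20 h at 55.5 °C. Binding scores were Z-scores against the library mean and standard deviation, calculated after subtracting beads alone and taking trimmed means of replicate probes.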

[2] = test system: TO-3-N3 (biotin conjugate); conditions: RNA library: Library-2
Procedure, shortened: as §1

[3] = test system: G-clamp-N3 (biotin conjugate); conditions: RNA library: Library-1 (pre-miRNA loops + repeats)
Procedure, shortened: as §1

[4] = test system: TO-3-N3-2 (biotin conjugate); conditions: RNA library: Library-2
Procedure, shortened: as §1

TO-N3 (biotin conjugate) = conditions: RNA library: Library-2
Procedure, shortened: as §1

Sequence | pull-down binding Z-score [1] | pull-down binding Z-score [2] | pull-down binding Z-score [3] | pull-down binding Z-score [4] | pull-down binding Z-score (TO-N3 (biotin conjugate))
UGUCAUUACUUUCAAUGGCA [hsa-mir-548h-2] | -1.22 | -0.726 | 0.222 | -0.4 | -0.978
UGUCAUUACUUUUAACUGUA [hsa-mir-548h-5] | -0.469 | 1.2 | -0.935 | 0.219 | 1.07
UGUCAUUACUUUUAAUGGUA [hsa-mir-548h-1] | -1.24 | -0.328 | -1.35 | -0.357 | -0.56
UGUCAUUGAAAGUAAUAGCA [hsa-mir-548h-3] | -0.319 | -0.165 | -1.07 | -0.0124 | -0.141
UGUCGUAGAAAGUAAUGGCA [hsa-mir-548l] | -0.387 | 0.0469 | 0.662 | -0.0955 | -0.189
UGUCUUGUAGCCAGGAUAUUGUUUUAAAGAA [hsa-mir-4668] | -0.355 | -0.404 | -0.739 | 0.00983 | -0.338
UGUCUUGUGUCUGUAAGUAU [hsa-mir-1275] | -0.00915 | -0.619 | -0.561 | -0.189 | -0.413
UGUCUUUUUUUUUUUCUGAGACA [hsa-mir-1273c] | -1.36 | -0.718 | -0.128 | 0.127 | -1.21
UGUGACCUGGAGCAGCUCAGGAGGGCUUCCUGGGUGAGGUGGCAGGUUACA [hsa-mir-4311] | 1.69 | 0.566 | 2.01 | 0.183 | 1.08
UGUGAGAGCUACUAAGUCUUAUA [hsa-mir-8076] | -0.596 | 0.0311 | 0.772 | -0.223 | -0.162
UGUGCCCCGUACCGGACAGG [hsa-mir-7160] | 1.21 | -0.0418 | -1.03 | -0.0308 | 0.611
UGUGCCUGCCUUCGAAGUGCACGGCAGG [hsa-mir-4297] | 0.753 | 0.105 | -0.529 | 0.00697 | 0.519
UGUGCCUUGCCUUUCCUUUGGCACA [hsa-mir-4438] | -0.0304 | -0.0269 | 0.155 | -0.183 | -0.0545
UGUGGCAGUGGCAGAGGUCGCUACA [hsa-mir-6856] | 1.13 | 0.436 | 1.12 | 0.0517 | 0.704
UGUGGCCUGGGGGUUGAGGACCCCUGCUCUA [hsa-mir-645] | 2.75 | 0.874 | 1.32 | 0.303 | 1.74
UGUGGCCUUUUUGCCUUUUCUAAAGGCCACAU [hsa-mir-1250] | -0.551 | -0.234 | 0.00873 | -0.241 | -0.489
UGUGGUCACCCACUCU [hsa-mir-4316] | 0.297 | -0.237 | -0.668 | -0.0165 | 0.0225
UGUGGUGGGUGGUGGCCUGCGGUGAGCAGGGCCCUCA [hsa-mir-1228] | 2.1 | 1.6 | 0.921 | 1.08 | 2.36
UGUGGUUGGGGCCAUGGCGGGUGGGCAGCCCAGCCUCUGAGCCUUCCU [hsa-mir-1238] | 2.37 | 2.04 | -0.179 | 1.74 | 2.76

Sequence | pull-down binding Z-score [1] | pull-down binding Z-score [2] | pull-down binding Z-score [3] | pull-down binding Z-score [4] | pull-down binding Z-score (TO-N3 (biotin conjugate))
UGUGUGCUGAGAAAAUUCACACA [hsa-mir-5580] | -0.274 | 0.00215 | -0.421 | 0.149 | -0.125
UGUGUGUACUCACAGCCCCUCACACA [hsa-mir-942] | -0.11 | -0.301 | -0.624 | -0.262 | -0.432
UGUGUGUCGCUCCGGGUCCACG [hsa-mir-574] | 1.25 | 0.0307 | 0.438 | -0.0762 | 0.516
UGUGUUCAGUGGAACCAAGGUAAACACA [hsa-mir-624] | 1.22 | 1.29 | 1.58 | 0.95 | 1.56
UGUUAAGGCAUGUUCAGGAACA [hsa-mir-1265] | 0.652 | -0.0763 | 2.1 | 0.401 | 0.28
UGUUAGUGUUCAAGUCUACA [hsa-mir-4802] | -0.255 | -0.747 | 0.156 | -0.398 | -0.509
UGUUCACUUUCUAUAUGAUGAAUA [hsa-mir-656] | -1.7 | -1.09 | -0.48 | -0.523 | -1.4
UGUUCAGUGGGAUUUGGAGA [hsa-mir-8061] | 0.449 | 0.542 | -0.118 | 0.152 | 0.645
UGUUCAUGUCUCUCUGUGCACAGGGGACGAGAGUCA [hsa-mir-4420] | 0.762 | -0.612 | 0.39 | -0.232 | -0.35
UGUUCAUUCACAUGAUCAUAAGUGGACA [hsa-mir-4643] | -0.251 | 0.535 | 0.373 | 0.169 | 0.388
UGUUCGCUUUAUUUAUGAUGAAUCA [hsa-mir-539] | -1.01 | -0.769 | 0.0951 | -0.121 | -0.916
UGUUCGUUUUGCUCAUGUCGAAUC [hsa-mir-487b] | -0.133 | -0.794 | -0.817 | -0.391 | -0.701
UGUUGACUGAAUAAUAAACA [hsa-mir-3139] | -0.846 | -0.946 | -1.29 | -0.319 | -1.23
UGUUGAGCGCAGUAAGACAACA [hsa-mir-3529] | -0.0925 | -0.51 | 0.892 | -0.0511 | -0.482
UGUUGGCAGCCCAAGAUGACA [hsa-mir-4686] | 0.58 | 0.375 | -0.568 | -0.0148 | 0.581
UGUUGGGGGGACA [hsa-mir-4262] | 0.707 | 2.24 | -0.216 | 1.63 | 1.67
UGUUGGUUGAAGAUGCCUUUCAACA [hsa-mir-552] | -0.598 | -0.807 | 0.0946 | -0.396 | -0.937
UGUUUAACUCCUCUCCACGUGAACA [hsa-mir-499a] | 0.116 | 0.828 | -0.0505 | -0.0532 | 0.731
